From article PMC2755859

Legend:
PRMT5cat (human) = PRMT5cat (human) (UniProt O14744); experiment: AUC
pICln = pICln (UniProt P54105); experiment: AUC
Sequence of pICln (P54105 whole entry): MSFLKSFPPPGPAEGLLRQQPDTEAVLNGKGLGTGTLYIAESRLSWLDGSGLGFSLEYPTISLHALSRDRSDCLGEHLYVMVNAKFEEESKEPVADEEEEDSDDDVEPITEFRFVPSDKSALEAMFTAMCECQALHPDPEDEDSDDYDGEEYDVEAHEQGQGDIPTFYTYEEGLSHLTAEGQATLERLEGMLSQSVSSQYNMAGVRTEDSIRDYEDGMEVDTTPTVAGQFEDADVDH

Sequence of SmD3 (P62318 whole entry): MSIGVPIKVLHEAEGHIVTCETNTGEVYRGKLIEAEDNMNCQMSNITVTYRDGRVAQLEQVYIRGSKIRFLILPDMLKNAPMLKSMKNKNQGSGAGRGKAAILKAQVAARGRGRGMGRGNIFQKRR

**Q.** Which Kd (PRMT5cat (human)) does the source give for “PRMT5cat (from UniProt O14744 296-637) (domain or fragment)” here?
**A.** The Kd was 20 µM.

**Q.** And the stoichiometry N (PRMT5cat (human))?
**A.** Its stoichiometry N is 2.

**Q.** With “SmD3 (from UniProt P62318 1-126) (natural protein)” as the substance, how does the stoichiometry N (pICln) read?
**A.** The stoichiometry N was 1.
